Results on two substances are retold here after PMC11629141.

The target of assay [1] is S2N‐6G11 (S2N scFv fused to the N‐terminus of the 6G11 light chain via an MMP‐9 cleavable linker), prior to MMP‐9 digestion (human | chicken). Put plainly: BLI; 6G11 or light chain construct (5 µg/mL) loaded on Protein A biosensors; FcγRIIB 125 to 15.6 nM in 1:2 dilutions, 60 s association, 40 s dissociation in kinetics buffer.
For assay [2], the target named is S2B‐6G11 post MMP‐9 digestion and partial removal of the scFv on a 6G11‐based affinity column (human). The assay is described as above.
The target of assay [3] is 6G11 (BI‐1206), full‐length antibody containing the PGLALA Fc mutations (human). The assay is described as above.
For assay [4], the target named is FcγRIIB on Raji cells (human (endogenous in Raji)) (UniProt P31994). Put plainly: flow cytometry on cells; 250.000 Raji cells (FcγRIIB+, CD20+) with 6G11 or light chain constructs 1000-0.005 nM (1:5 dilutions), 30 min RT in PBS-B; anti-human Fc PE secondary antibody. A general note: In flow cytometry, cells or beads pass a laser one at a time.

Chain of S2B‐6G11 post MMP‐9 digestion and partial removal of the scFv on a 6G11‐based affinity column (human) (heavy, as listed by the source, chain 1 of 2): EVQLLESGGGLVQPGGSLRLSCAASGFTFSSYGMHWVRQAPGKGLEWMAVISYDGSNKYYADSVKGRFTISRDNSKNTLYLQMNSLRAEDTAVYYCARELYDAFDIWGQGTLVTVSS
Chain of S2B‐6G11 post MMP‐9 digestion and partial removal of the scFv on a 6G11‐based affinity column (human) (light, as listed by the source, chain 2 of 2): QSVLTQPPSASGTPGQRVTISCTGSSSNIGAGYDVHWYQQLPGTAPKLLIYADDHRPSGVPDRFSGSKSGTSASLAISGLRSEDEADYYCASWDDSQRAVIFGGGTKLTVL
Chain of 6G11 (BI‐1206), full‐length antibody containing the PGLALA Fc mutations (human) (heavy, as listed by the source, chain 1 of 2): as the sequence (heavy, as listed by the source, chain 1 of 2) above
Chain of 6G11 (BI‐1206), full‐length antibody containing the PGLALA Fc mutations (human) (light, as listed by the source, chain 2 of 2): as the sequence (light, as listed by the source, chain 2 of 2) above
Chain of S2N‐6G11 (S2N scFv fused to the N‐terminus of the 6G11 light chain via an MMP‐9 cleavable linker), prior to MMP‐9 digestion (human | chicken) (heavy, as listed by the source, chain 1 of 4): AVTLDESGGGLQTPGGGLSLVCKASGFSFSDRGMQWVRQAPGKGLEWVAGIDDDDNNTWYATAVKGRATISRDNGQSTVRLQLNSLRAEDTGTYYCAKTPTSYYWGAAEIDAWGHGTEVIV
Chain of S2N‐6G11 (S2N scFv fused to the N‐terminus of the 6G11 light chain via an MMP‐9 cleavable linker), prior to MMP‐9 digestion (human | chicken) (heavy, as listed by the source, chain 2 of 4): as the sequence (heavy, as listed by the source, chain 1 of 2) above
Chain of S2N‐6G11 (S2N scFv fused to the N‐terminus of the 6G11 light chain via an MMP‐9 cleavable linker), prior to MMP‐9 digestion (human | chicken) (light, as listed by the source, chain 3 of 4): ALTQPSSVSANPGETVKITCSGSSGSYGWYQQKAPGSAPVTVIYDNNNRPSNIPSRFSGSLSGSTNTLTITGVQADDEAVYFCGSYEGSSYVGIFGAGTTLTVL
Chain of S2N‐6G11 (S2N scFv fused to the N‐terminus of the 6G11 light chain via an MMP‐9 cleavable linker), prior to MMP‐9 digestion (human | chicken) (light, as listed by the source, chain 4 of 4): as the sequence (light, as listed by the source, chain 2 of 2) above

Turning to “His‐tagged human FcγRIIB extracellular domain protein (from UniProt P31994 43-217) (domain or fragment)”, the Kd – broadly, the constant that tells how readily two partners part at equilibrium – in assay [1] is 8.3 nM; in assay [2], 5.9 nM; in assay [3], 32.1 nM.
Regarding “6G11 (BI‐1206), full‐length antibody containing the PGLALA Fc mutations”, in assay [4], the EC50 (as a rule, the concentration giving half of the maximal effect) worked out at 0.4 nM.
